Among the data in the supplement of paper PMC10567573 are protein stability index values, retold here.

B1: ANKRD40 (parent)
chain: SLRENDFIEIELDRQELTYQELLR
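Note: lentivirally expressed fusions sorted by FACS into six bins by GFP to DsRed ratio, PSI derived from sequencing read proportions per bin multiplied by bin number.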

This series covers variants of B1. The series is described as follows: protein stability index of a GFP-peptide fusion (GPS, HEK-293T) (PSI 1-6); higher = more stable. As to conditions: c terminus: a fixed tail appended.
In the case of SLRENDFIEIELDRQNLTYQELLR [E16N], the protein stability index worked out at 3.5.
As for SLRENDFIEIELDRQGLTYQELLR [E16G], the protein stability index was 2.91.
Under SLRENDFIEIELDRQYLTYQELLR [E16Y] stands 2.15; under SLRENDFIEIELDRQQLTYQELLR [E16Q], 3.18; under SLRENDFIEIELDRQVLTYQELLR [E16V], 2.48.
For SLRENDFIEYELDRQELTYQELLR [I10Y], the protein stability index was 3.33.
Under SLRENDFIEQELDRQELTYQELLR [I10Q] stands 4.26; under SLRENDFIEDELDRQELTYQELLR [I10D], 4.12; under SLRENDFIEEELDRQELTYQELLR [I10E], 4.63.
With SLRENDFIEWELDRQELTYQELLR [I10W], the protein stability index came out at 3.19.
SLRENDFIEGELDRQELTYQELLR [I10G]: the protein stability index is 3.55.
As to SLCENDFIEIELDRQELTYQELLR [R3C], the protein stability index is 3.14.
Turning to SLFENDFIEIELDRQELTYQELLR [R3F], the protein stability index was found to be 2.37.
With SLMENDFIEIELDRQELTYQELLR [R3M], the protein stability index stood at 2.54.
Under SLDENDFIEIELDRQELTYQELLR [R3D] stands 2.9; under SLWENDFIEIELDRQELTYQELLR [R3W], 2.26; under SLIENDFIEIELDRQELTYQELLR [R3I], 2.9.
Next, SLQENDFIEIELDRQELTYQELLR [R3Q]: 2.95; SLHENDFIEIELDRQELTYQELLR [R3H]: 3.08.
Take MLRENDFIEIELDRQELTYQELLR [S1M]: the protein stability index is 2.66.
Turning to QLRENDFIEIELDRQELTYQELLR [S1Q], the protein stability index is 3.44.
In the case of PLRENDFIEIELDRQELTYQELLR [S1P], the protein stability index is 3.26.
For NLRENDFIEIELDRQELTYQELLR [S1N], the protein stability index worked out at 3.31.
As to KLRENDFIEIELDRQELTYQELLR [S1K], the protein stability index stood at 3.23.
Consider WLRENDFIEIELDRQELTYQELLR [S1W], for which the protein stability index amounted to 2.26.
Next, GLRENDFIEIELDRQELTYQELLR [S1G]: 2.77; CLRENDFIEIELDRQELTYQELLR [S1C]: 3.07; SLRENDFIQIELDRQELTYQELLR [E9Q]: 2.51.
Turning to SLRENDFIMIELDRQELTYQELLR [E9M], the protein stability index amounted to 2.14.
As to SLRENDFISIELDRQELTYQELLR [E9S], the protein stability index worked out at 2.73.
For the variant SLRENDFIRIELDRQELTYQELLR [E9R], the protein stability index was determined as 1.97.
SLRENDFIHIELDRQELTYQELLR [E9H]: the protein stability index is 2.27.
As to SLRENDFINIELDRQELTYQELLR [E9N], the protein stability index was 2.82.
Regarding SLRENDFITIELDRQELTYQELLR [E9T], the protein stability index came to 2.
Regarding SLRENDFILIELDRQELTYQELLR [E9L], the protein stability index amounted to 2.14.
Take SLRETDFIEIELDRQELTYQELLR [N5T]: the protein stability index amounted to 3.09.
Take SLREKDFIEIELDRQELTYQELLR [N5K]: the protein stability index worked out at 2.88.
Consider SLREIDFIEIELDRQELTYQELLR [N5I], for which the protein stability index is 2.33.
On to SLREMDFIEIELDRQELTYQELLR [N5M], for which the protein stability index was found to be 2.4.
Take SLRENDFIEIELDRQEITYQELLR [L17I]: the protein stability index was found to be 3.19.
SLRENDFIEIELDRQEHTYQELLR [L17H]: the protein stability index amounted to 3.59.
Turning to SLRENDFIEIELDRQETTYQELLR [L17T], the protein stability index is 3.35.
On to SLRENDFIEIELDRQEDTYQELLR [L17D], for which the protein stability index came out at 3.71.
On to SLRENDFIEIELDRQELTYQEKLR [L22K], for which the protein stability index was 3.97.
Under SLRENDFIEIELDRQELTYQERLR [L22R] stands 3.74.
Next, SLRENDFIEIELDRQELTYQEMLR [L22M]: 3.34; SLRENDFIEIELDRQELTYQESLR [L22S]: 3.8; SLRENDFIEIELDRQELTYQEDLR [L22D]: 4.54.
As for SLRENDFIEIELDRQELTYQEFLR [L22F], the protein stability index was found to be 3.14.
For the variant SLRENDFIEIELDRQELTYIELLR [Q20I], the protein stability index was determined as 1.83.
For SLRENDFIEIELDRQELTYVELLR [Q20V], the protein stability index was found to be 2.62.
In the case of SLRENDFIEIELDRQELTYYELLR [Q20Y], the protein stability index is 2.29.
Next, SLRENDFIEIELDRQELTYSELLR [Q20S]: 3.3; SLRENDFIEIELDRQELTYLELLR [Q20L]: 2.04.
On to SLRENDFIEIELDRQELTYKELLR [Q20K], for which the protein stability index worked out at 3.2.
For SLRENDFIEIELDRQELTYRELLR [Q20R], the protein stability index was 2.3.
In the case of SLRENDFIEIELDRQELTYHELLR [Q20H], the protein stability index came to 2.76.
SLRRNDFIEIELDRQELTYQELLR [E4R]: the protein stability index came out at 2.31.
Take SLRTNDFIEIELDRQELTYQELLR [E4T]: the protein stability index came to 2.7.
Under SLRANDFIEIELDRQELTYQELLR [E4A] stands 2.74; under SLRQNDFIEIELDRQELTYQELLR [E4Q], 2.97.
For the variant SLRENDFIEIELNRQELTYQELLR [D13N], the protein stability index was determined as 3.17.
Consider SLRENDFIEIELPRQELTYQELLR [D13P], for which the protein stability index is 2.77.
Take SLRENDFIEIELHRQELTYQELLR [D13H]: the protein stability index was determined as 2.22.
Take SCRENDFIEIELDRQELTYQELLR [L2C]: the protein stability index was 2.99.
SERENDFIEIELDRQELTYQELLR [L2E]: the protein stability index came to 2.93.
Take SHRENDFIEIELDRQELTYQELLR [L2H]: the protein stability index stood at 3.01.
Take SWRENDFIEIELDRQELTYQELLR [L2W]: the protein stability index is 2.73.
As for SRRENDFIEIELDRQELTYQELLR [L2R], the protein stability index came to 2.8.
As for SNRENDFIEIELDRQELTYQELLR [L2N], the protein stability index worked out at 2.89.
As to SLRENDFIEIELDRQELTYQFLLR [E21F], the protein stability index came to 1.69.
Next, SLRENDFIEIELDRQELTYQQLLR [E21Q]: 3.34; SLRENDFIEIELDRQELTYQILLR [E21I]: 1.9.
Turning to SLRENDFIEIELDRQELTYQDLLR [E21D], the protein stability index is 2.85.
SLRENDFIEIELDRQELTYQRLLR [E21R]: the protein stability index is 2.62.
In the case of SLRENDFIEIELDRQELVYQELLR [T18V], the protein stability index was 2.22.
Under SLRENDFIEIELDRQELKYQELLR [T18K] stands 2.93; under SLRENDFIEIELDRQELMYQELLR [T18M], 2.12.
Next, SLRENDFIEIELDRQELNYQELLR [T18N]: 3.5; SLRENDFIEIELDRQELSYQELLR [T18S]: 3.55; SLRENDFIEIELDRQELIYQELLR [T18I]: 2.1.
Next, SLRENDFIEIEEDRQELTYQELLR [L12E]: 4.41; SLRENDFIEIEGDRQELTYQELLR [L12G]: 4.4.
With SLRENDFIEIEVDRQELTYQELLR [L12V], the protein stability index was 3.54.
SLRENDFIEIEMDRQELTYQELLR [L12M]: the protein stability index was 2.67.
With SLRENDFIEIEFDRQELTYQELLR [L12F], the protein stability index was found to be 2.73.
Next, SLRENDFIEIEIDRQELTYQELLR [L12I]: 2.69; SLRENDFIEIEYDRQELTYQELLR [L12Y]: 3.34.
For SLRENDFIEIELDRQELTYQELLK [R24K], the protein stability index is 3.12.
For SLRENDFIEIELDRQELTYQELLA [R24A], the protein stability index turned out to be 3.23.
In the case of SLRENDFIEIELDRQELTYQELLH [R24H], the protein stability index stood at 2.77.
As to SLRENDFIEIELDRQELTYQELLE [R24E], the protein stability index is 3.88.
Next, SLRENDFIEIELDRQELTYQELLV [R24V]: 2.71.
Next, SLRENDFIEIELDRQELTYQELLD [R24D]: 3.17.
